Assay results reported in US20160199473A1 (Johns Hopkins, published 2016).

Tests used:
[1] = molecular target: T1, HLA-A2 (HLA-A*0201 allele) on T2 cells (human); test: T2 peptide/MHC binding assay, flow cytometry with W6/32
T1 construct: whole, on cells; MHC class I molecule on the surface of T2 cells; also called T2-A2 cells
From the text: (§1) Peptide pulsed cells were stained with an unlabeled mouse anti-HLA class I molecule monoclonal antibody W6/32 and a goat-anti-mouse FITC-labeled IgG2a secondary antibody. FIG. 1E. T2 cells genetically modified to express A3 and pulsed with either: Mesothelin A1309-318 binding peptide (green line), PSCA A399-107 (pink line), A35-13 (blue line), A314-22 (orange line), A3109-117 (purple line), A343-51 (red line), and PSCA A320-28 (yellow line). Peptide pulsed cells were stained with an unlabeled mouse anti-human HLA-A3 specific monoclonal antibody GAPA3 and a FITC-labeled IgG2a secondary antibody. FIG. 1F. T2 cells genetically modified to express A24 and pulsed with either: Mesothelin A1309-318 peptide (green line), PSCA A2476-84 (pink line), PSCA A24108-116 (blue line), PSCA A2499-107 (orange line), PSCA A24109-117 (purple line), and PSCA A2477-85 (red line). Peptide pulsed cells were stained with an unlabeled pan-HLA antibody W6/32 and a FITC-labeled IgG2a secondary antibody.
(§2) Binding of these epitopes to their respective HLA class I molecule was tested by pulsing TAP deficient T2 cells that expressed the corresponding HLA class I molecule (T2-A2, T2-A3, or T2-A24 cells). […]
(§3) Materials and Methods: Peptide/MHC binding Assays. […] Peptide binding was determined by FACS (Beckon Dickenson, San Jose, Calif.) analysis.

[2] = molecular target: T1, HLA-A2 (HLA-A*0201 allele) on T2 cells; test: T2 binding assay, flow cytometry with W6/32 (FIG. 1D)
From the text: as §1
(§4) Binding of these epitopes to their respective HLA class I molecule was tested by pulsing TAP deficient T2 cells that expressed the corresponding HLA class I molecule (T2-A2, T2-A3, or T2-A24 cells). […] Binding of T2 cells pulsed with two candidate mesothelin derived HLA-A3 and two candidate HLA-A24 epitopes are shown in FIG. 1B and FIG. 1C, respectively. A similar binding experiment was done with the PSCA derived peptides for HLA-A2, HLA-A3, and HLA-A24. (FIG. 1D, FIG. 1E and FIG. 1F).
(§5) Materials and Methods: Peptide/MHC binding Assays. T2 cells expressing the HLA molecule of interest were resuspended in AimV serum free media (Gibco) to a concentration of 2.5×10⁵ cells/ml and pulsed with 100-200 micrograms of peptide at room temperature overnight. Pulsing at room temperature allows for optimizing the number of empty HLA molecules available for binding each epitope (30). The cells were washed and resuspended at 1×10⁵ cells/ml. Peptide binding was determined by FACS (Beckon Dickenson, San Jose, Calif.) analysis.

[3] = molecular target: T2, HLA-A3 (HLA-A301 allele) on T2-A3 cells (human); test: T2 binding assay, flow cytometry with GAPA3 (FIG. 1E)
T2 construct: whole, on cells; MHC class I molecule on the surface of T2-A3 cells
From the text: as §1, §4, §5

[4] = molecular target: T2, HLA-A3 (HLA-A301 allele) on T2-A3 cells; test: T2 binding assay, flow cytometry with GAPA3 (FIG. 1B)
From the text: as §1, §2, §3

[5] = molecular target: T1, HLA-A2 (HLA-A*0201 allele) on T2 cells; test: T2 binding assay, flow cytometry with W6/32 (FIG. 1A)
From the text: as §1, §2, §3

Binder | binding result [2] | binding result [3] | also measured
EIDESLIFY (also called Mesothelin A1309-318 peptide) [Mesothelin A1309-318 binding epitope (EIDESLIFY)] |  |  | binding result [1]: no binding
QLGEQCWTA (Synthetic nonamer from prostate stem cell antigen; also called PSCA A3(43-51); PSCA A243-51) [PSCA (43-51) peptide QLGEQCWTA] | binds | binds | 
ALLPALGLL (Synthetic nonamer from prostate stem cell antigen; also called PSCA A2(108-116); PSCA A24(108-116)) [PSCA (108-116) peptide ALLPALGLL] | binds |  | 
LLALLMAGL (Synthetic nonamer from prostate stem cell antigen; also called PSCA A2(5-13); PSCA A3(5-13)) [PSCA (5-13) peptide LLALLMAGL] | binds | binds | 
ALQPAAAIL (Synthetic nonamer from prostate stem cell antigen; also called PSCA A3(99-107); PSCA A24(99-107)) [PSCA (99-107) peptide ALQPAAAIL] |  | binds | 
ALQGGGPPY (Synthetic nonamer from mesothelin; printed range spans ten positions; also called MesoA3(225-234)) [Mesothelin A3(225-234)] |  |  | binding result [4]: binds
ALQPGTALL (Synthetic nonamer from prostate stem cell antigen; also called PSCA A2(14-22); PSCA A3(14-22)) [PSCA (14-22) peptide ALQPGTALL] | binds | binds | 
SLLFLLFSL (Synthetic nonamer from mesothelin; legends print the position as 20-29; also called Mesothelin A220-29; MesoA2(20-29)) [Mesothelin A2(20-28)] |  |  | binding result [1]: binds
LLPALGLLL (Synthetic nonamer from prostate stem cell antigen; also called PSCA A3(109-117); PSCA A24(109-117)) [PSCA (109-117) peptide LLPALGLLL] |  | binds | 
ELAVALAQK (Synthetic nonamer from mesothelin; printed range spans ten positions; also called MesoA3(83-92)) [Mesothelin A3(83-92)] |  |  | binding result [4]: binds
ALLCYSCKA (Synthetic nonamer from prostate stem cell antigen; also called PSCA A3(20-28); PSCA A320-28) [PSCA (20-28) peptide ALLCYSCKA] |  | binds | 
VLPLTVAEV (Synthetic nonamer from mesothelin; legends print the position as 530-539; also called Mesothelin A2530-539; MesoA2(530-539)) [Mesothelin A2(530-538)] |  |  | binding result [5]: binds
